No end group written: not given here. TMR = tetramethyl rhodamine dye

The results in this text go back to PMC11931385, “Structural and functional analysis of cancer-associated missense variants in the retinoblastoma protein pocket domain” (The Journal of Biological Chemistry, 2025).

What all share (assay): fluorescence polarisation; 37 °C, after the 25 °C reading ramped over 7 min to 37 °C and 2 min incubation; unlabeled Rb^P against 1.5 nM TMR-E2F1^TD or 7.5 nM TMR-E7^LxCxE; 25 mM Tris pH 8.0, 200 mM NaCl, 1 mM DTT, 0.1% Tween-20; apparent Kd
Conditions in all cases: both partners purified
For orientation: In fluorescence polarisation assays a small probe gives low polarisation when free and higher when bound to something large.

One experiment concerns the target T1, Rb^P T738I (human, UniProt P06400 380-788, T738I).
T1 construct: also called variant 67
T1 sequence (looked up): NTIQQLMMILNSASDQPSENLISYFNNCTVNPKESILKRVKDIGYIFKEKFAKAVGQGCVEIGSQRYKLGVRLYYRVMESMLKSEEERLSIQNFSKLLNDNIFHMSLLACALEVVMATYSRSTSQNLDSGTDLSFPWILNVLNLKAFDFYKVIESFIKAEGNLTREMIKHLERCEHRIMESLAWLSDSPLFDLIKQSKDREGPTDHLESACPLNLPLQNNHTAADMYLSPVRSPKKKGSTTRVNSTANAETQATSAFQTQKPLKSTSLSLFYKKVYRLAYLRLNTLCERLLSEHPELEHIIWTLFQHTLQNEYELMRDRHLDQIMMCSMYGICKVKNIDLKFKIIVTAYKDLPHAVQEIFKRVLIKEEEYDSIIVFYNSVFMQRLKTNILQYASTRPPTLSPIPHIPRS

Another experiment has as its target T2, Rb^P E492Q (human, UniProt P06400 380-788, E492Q).
T2 construct: also called variant 18
T2 sequence (looked up): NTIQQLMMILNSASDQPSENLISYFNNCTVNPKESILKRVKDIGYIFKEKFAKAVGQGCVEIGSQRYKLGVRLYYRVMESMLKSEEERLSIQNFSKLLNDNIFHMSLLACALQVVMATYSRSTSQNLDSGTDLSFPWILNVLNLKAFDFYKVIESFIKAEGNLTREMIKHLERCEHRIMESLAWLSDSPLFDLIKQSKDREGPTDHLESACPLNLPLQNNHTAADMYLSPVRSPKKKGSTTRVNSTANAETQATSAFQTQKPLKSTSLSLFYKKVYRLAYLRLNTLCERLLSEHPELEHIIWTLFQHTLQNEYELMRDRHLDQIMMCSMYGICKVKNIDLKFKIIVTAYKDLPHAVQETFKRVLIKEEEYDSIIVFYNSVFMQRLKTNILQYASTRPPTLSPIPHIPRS

The next experiment addresses T3, Rb^P R656W (human, UniProt P06400 380-788, R656W).
T3 construct: also called variant 49
T3 sequence (looked up): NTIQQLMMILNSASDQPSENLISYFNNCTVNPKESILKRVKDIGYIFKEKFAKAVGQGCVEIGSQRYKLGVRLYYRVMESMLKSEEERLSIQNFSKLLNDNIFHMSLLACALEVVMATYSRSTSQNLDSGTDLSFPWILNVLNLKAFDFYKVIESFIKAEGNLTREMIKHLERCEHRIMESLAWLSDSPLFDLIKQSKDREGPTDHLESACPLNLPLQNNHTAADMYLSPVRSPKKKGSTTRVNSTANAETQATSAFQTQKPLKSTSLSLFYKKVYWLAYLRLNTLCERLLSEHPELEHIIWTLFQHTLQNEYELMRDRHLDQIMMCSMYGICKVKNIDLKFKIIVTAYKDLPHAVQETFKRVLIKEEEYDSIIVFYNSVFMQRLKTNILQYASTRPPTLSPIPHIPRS

The target of another experiment is T4, Rb^P M761L (human, UniProt P06400 380-788, M761L).
T4 construct: also called variant 74
T4 sequence (looked up): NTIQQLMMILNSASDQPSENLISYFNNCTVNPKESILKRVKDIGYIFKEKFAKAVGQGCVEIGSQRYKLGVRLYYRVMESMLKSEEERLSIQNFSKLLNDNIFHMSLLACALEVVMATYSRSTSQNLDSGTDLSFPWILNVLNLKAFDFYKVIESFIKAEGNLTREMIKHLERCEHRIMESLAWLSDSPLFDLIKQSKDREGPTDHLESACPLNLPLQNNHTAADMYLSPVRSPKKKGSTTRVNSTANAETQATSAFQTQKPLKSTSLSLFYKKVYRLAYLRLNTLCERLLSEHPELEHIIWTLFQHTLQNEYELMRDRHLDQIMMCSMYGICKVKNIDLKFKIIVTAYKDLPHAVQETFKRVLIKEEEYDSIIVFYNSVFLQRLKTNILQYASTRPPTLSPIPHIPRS

For another experiment, the target named is T5, Rb^P A490T (human, UniProt P06400 380-788, A490T).
T5 construct: also called variant 16
T5 sequence (looked up): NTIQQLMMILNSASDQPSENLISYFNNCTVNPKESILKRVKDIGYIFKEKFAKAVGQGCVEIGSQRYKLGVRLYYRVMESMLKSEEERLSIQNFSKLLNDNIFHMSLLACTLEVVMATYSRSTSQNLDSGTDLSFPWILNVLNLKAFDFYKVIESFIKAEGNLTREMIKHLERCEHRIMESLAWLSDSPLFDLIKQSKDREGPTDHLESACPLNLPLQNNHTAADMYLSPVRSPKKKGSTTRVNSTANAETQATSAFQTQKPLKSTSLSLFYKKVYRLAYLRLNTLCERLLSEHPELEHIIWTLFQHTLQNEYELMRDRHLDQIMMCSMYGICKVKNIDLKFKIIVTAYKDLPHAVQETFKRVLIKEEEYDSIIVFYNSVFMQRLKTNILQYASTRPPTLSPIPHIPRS

B1: TMR-E2F1^TD, peptide of the E2F1 transactivation domain (peptide)
peptide: {TMR}-GEGIRDLFDCDFGDLTPLD
notes: also called E2F^TD; source: synthetic peptide, bought: GenScript
Turning to B1, the Kd with Rb^P T738I was 179 nM; with Rb^P E492Q, 73 nM; with Rb^P R656W it was 77 nM; with Rb^P M761L, 68 nM; with Rb^P A490T, 115 nM.

B2: TMR-E7^LxCxE, LxCxE peptide of the E7 oncoprotein from HPV (peptide)
peptide: DLYCYEQLN
modifications: also: TMR label, position not given here
notes: source: synthetic peptide, bought: GenScript
Regarding B2, the Kd was determined as 151 nM with Rb^P T738I; 52 nM with Rb^P E492Q; 19 nM in the experiment with Rb^P R656W; 5 nM with Rb^P M761L; 33 nM with Rb^P A490T.
